Measurements taken from publication PMC3605045, “GH1-family 6-P-β-glucosidases from human microbiome lactic acid bacteria” (Acta Crystallographica Section D: Biological Crystallography, 2013).

Biological target: the molecule itself
Assay: SEC; Superdex 200 16/60, 20 mM HEPES-NaOH pH 8.0, 250 mM NaCl, 2 mM DTT, proteins ~3 mg/ml, 1 ml/min, calibrated with ferritin, aldolase, conalbumin and ovalbumin; oligomeric state from the elution volume

B1: 6-P-β-glucosidase from Streptococcus mutans UA159 (SmBgl) (enzyme)
chain: SNAMSKLPENFLWGGAVAAHQLEGGWQEGGKGISVADVMTAGRHGVAREITAGVLEGKYYPNHEAIDFYHHYKEDVKLFAEMGFKCFRTSIAWTRIFPKGDEAEPNEAGLQFYDDLFDECLKYGIEPVVTLSHFELPYHLVTEYGGFTNRKVIDFFVHFAEVCFRRYKDKVKYWMTFNEINNQANYQEDFAPFTNSGIVYKEGDDREAIMYQAAHYELVASARAVKIGHAINPNLNIGCMVAMCPIYPATCNPKDILMAQKAMQKRYYFADVHVHGFYPEHIFKYWERKAIKVDFTERDKKDLFEGTVDYIGFSYYMSFVIDAHRENNPYYDYLETEDLVKNPYVKASDWDWQIDPQGLRYALNWFTDMYHLPLFIVENGFGAIDQVEADGMVHDDYRIDYLGAHIKEMIKAVDEDGVELMGYTPWGCIDLVSAGTGEMRKRYGFIYVDKDDEGKGTLKRSPKLSFNWYKEVIASNGDDI
notes: non-natural N-terminal extension left after TEV cleavage of the His6 tag (vector pMCSG7); 6-P-β-glucosidase Bgl of Streptococcus mutans UA159, 477 residues (Met1-Ile477), amplified from genomic DNA; The SAD structure (3pn8) was solved from selenomethionine-labelled protein; source: E. coli BL21 (DE3) Magic, purified (IMAC-I, SEC on Superdex 200, TEV cleavage of the His6 tag, IMAC-II); not shown: …
stoichiometry N: 2
